As usually defined, the Kd is the equilibrium constant for the complex coming apart. Broadly, the IC50 is the concentration at which inhibition is half-maximal. High values mean weaker potency, low ones greater potency.

Results on three molecules are retold here after US20030120037A1 (published 2003).

In assay [1] the target is FPRL1, seven-transmembrane G-protein coupled receptor (human) (UniProt P25090). Kind of assay: cell-based or functional assay.
Assay [2] deals with T1, FPRL1, seven-transmembrane G-protein coupled receptor (human, UniProt P25090 1-351).
T1 construct: whole, on cells; also called FPRH2; LXA4R
T1 sequence (looked up): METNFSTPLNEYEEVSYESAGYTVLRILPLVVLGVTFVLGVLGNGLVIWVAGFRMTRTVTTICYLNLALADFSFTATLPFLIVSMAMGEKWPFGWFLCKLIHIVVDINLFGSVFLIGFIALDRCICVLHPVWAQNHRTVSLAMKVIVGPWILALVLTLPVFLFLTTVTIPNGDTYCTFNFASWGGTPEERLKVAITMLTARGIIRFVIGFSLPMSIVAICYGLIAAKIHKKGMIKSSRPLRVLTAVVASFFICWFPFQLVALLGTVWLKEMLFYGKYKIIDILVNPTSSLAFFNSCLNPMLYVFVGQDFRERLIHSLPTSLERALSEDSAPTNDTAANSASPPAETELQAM
Kind of assay: Homologous displacement binding on human monocytes (native cells): constant 125I-SAA plus increasing unlabeled SAA, LIGAND/Scatchard analysis. The filing names FPRL1 as the SAA receptor on phagocytes; the receptor on monocytes is not isolated in this panel.
Procedure: (§1) The data was analyzed and plotted using LIGAND software on a Macintosh computer.
(§2) After incubation, the cells were washed once with ice-cold PBS then were layered onto a 10% sucrose/PBS cushion in Eppendorf tubes. The cells were centrifuged at 10,000 g for 1 min and the tips of the tubes containing cell pellets were cut and measured for radioactivity in a y-counter.

Assay [3] concerns the target T1, FPRL1, seven-transmembrane G-protein …. Kind of assay: radioligand binding on FPRL1/293 cells; 16 nM 125I-SAA with increasing unlabeled SAA; LIGAND analysis; FPRL1/293 cells; saturation/LIGAND estimate, 42000 sites/cell.
Procedure: as §1, §2
Assay [4] concerns the target T2, FPR, classical formyl peptide receptor (human, UniProt P21462 1-350).
T2 construct: whole, on cells; also called FPR/293 cells
T2 sequence (looked up): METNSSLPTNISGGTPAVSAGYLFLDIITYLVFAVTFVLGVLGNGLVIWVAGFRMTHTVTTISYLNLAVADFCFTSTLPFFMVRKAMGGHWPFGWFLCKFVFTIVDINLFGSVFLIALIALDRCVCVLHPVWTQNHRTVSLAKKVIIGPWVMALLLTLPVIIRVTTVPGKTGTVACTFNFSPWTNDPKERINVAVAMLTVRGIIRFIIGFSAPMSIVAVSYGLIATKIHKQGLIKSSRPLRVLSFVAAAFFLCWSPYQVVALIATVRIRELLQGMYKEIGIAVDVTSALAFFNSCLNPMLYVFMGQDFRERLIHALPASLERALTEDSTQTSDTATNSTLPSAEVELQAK
In words: binding of radiolabeled SAA to receptor-transfected cells.

The target of assay [5] is T1, FPRL1, seven-transmembrane G-protein …. In words: displacement of 125I-SAA from FPRL1/293 cells by unlabeled SAA (the same value is told for monocytes and neutrophils); homologous displacement of 125I-SAA by unlabeled SAA; FPRL1/293 cells. For orientation: Loss of bound radioactivity is the signal in a displacement assay; it reports binding, not function.
Procedure: as §1, §2

On to “N-formyl-methionyl-leucyl-phenylalanine (peptide)”, for which the Ca2+ mobilization in FPRL1 transfected cells (FPRL1/293 cells) in assay [1] was 10 µM.

B1: 125I-labeled recombinant human serum amyloid A (ligand)
chain: MRSFFSFLGEAFDGARDMWRAYSDMREANYIGSDKYFHARGNYDAAKRGPGGVWAAEAISNARENIQRFFGRGAEDSLADQAANEWGRSGKDPNHFRPAGLPEKY
modifications: radio-iodinated on tyrosine and lysine residues with the chloramine T method (125I)
notes: specific activity 5.8 mCi/mg; also called radioiodinated SAA
As for B1, the Kd is 34 nM in assay [2] and 64 nM in assay [3]. For the same molecule, the binding result in assay [4] is “no binding”.

B2: Recombinant human (rh) serum amyloid A (SAA) (ligand)
chain: MRSFFSFLGEAFDGARDMWRAYSDMREANYIGSDKYFHARGNYDAAKRGPGGVWAAEAISNARENIQRFFGRGAEDSLADQAANEWGRSGKDPNHFRPAGLPEKY
notes: Bought from Pepro Tech; also called rhSAA; unlabeled SAA
Turning to B2, in assay [5], the half-maximal inhibitory concentration (IC50) was about 50 nM.
